Source: US20160185857A1 (published 2016)
Values belong to the binder of their own block, whether it stands above or below them.

Target: T1, recombinant soluble human FcγRIIB (UniProt P31994 43-217)
T1 chain: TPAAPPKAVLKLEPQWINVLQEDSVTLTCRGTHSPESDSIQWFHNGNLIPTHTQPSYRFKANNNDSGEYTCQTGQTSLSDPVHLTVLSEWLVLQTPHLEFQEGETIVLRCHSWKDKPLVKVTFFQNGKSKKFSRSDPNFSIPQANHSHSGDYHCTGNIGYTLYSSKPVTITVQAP
Assay: SPR

koff: 0.01 s⁻¹
B1: chGB3_N297A (chimeric GB3, prior art antibody of WO 2005/051999, N297A format) (antibody, V domains shown)
VH: VQLQQSGPELVKPGASVKISCKASGYTFTDYYIYWVKQWPGQGLEWIGWIFPGTGNTYYNENFKDKATLTIDRSSSTAYMLLGSLTSEDSAVYFCYGPFAYWGQ
VL: RIQLTQSPSSLSASLGERVSLTCRASQEISGYLSWLQQKPDGTIKRLIYATSALDSGVPKRFSGSGSGSNYSLTISSLESEDFADYYCLQYANYPYTFGGGTKL

koff: 0.00049 s⁻¹
B2: ch8A6_wt (antibody)
chain 1: EVQLVESGGDLVQPGRSLRLSCAASGFTFSDYYMAWVRQAPKKGLEWVASISSDGSNTYYGDSVKGRFTISRDNTRSNLYLQMNSLRSEDTATYYCARPGDYWGQGVMVTVSS
chain 2: NIVMTQSPTSMFISVGDRVTMNCKASQNVGTYVDWFQQKTGQSPTLLIFGASNRYTGVPDRFTGSGSGTDFTLSISNMQAEDLAVYYCLQYNYHPYTFGPGTTLELKR
